Assay [1] has as its target hPD-1 expressed on Jurkat cells (human) (UniProt Q15116). As to the kind of experiment: flow cytometry on Jurkat PD-1 cells, competitor nivolumab at 100x molar excess. In general terms: In flow cytometry, cells or beads pass a laser one at a time.
Assay [2] has the same target. Nature of the assay: flow cytometry on Jurkat PD-1 cells, competitor pembrolizumab at 100x molar excess.

The values below come from EP4671273A1.

Chain of hPD-1 expressed on Jurkat cells (human) (Q15116 25-288): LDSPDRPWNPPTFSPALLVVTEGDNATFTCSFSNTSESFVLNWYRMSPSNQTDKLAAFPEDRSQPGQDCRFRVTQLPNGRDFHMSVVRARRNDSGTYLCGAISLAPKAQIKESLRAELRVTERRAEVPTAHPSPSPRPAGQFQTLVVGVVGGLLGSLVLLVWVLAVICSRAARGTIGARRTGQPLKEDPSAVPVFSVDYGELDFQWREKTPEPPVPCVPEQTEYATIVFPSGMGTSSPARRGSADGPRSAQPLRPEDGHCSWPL

B1: XVT458-z2-m6 (antibody, human IgG1, V domains shown)
VH: VQLVQSGAEVKKPGASVKVSCKASGYTFTNFYIHWVRQAPGQGLEWMGSIYPNYGITAYNQKFKDRVTMTVDTSTSTAYMELRSLRSDDTAVYYCARGYSYAMDYWGQGTTVTVSS
VL: DIQMTQSPSSVSASVGDRVTITCSASQGISGDLNWYQQKPGKAPKLLIYHTSQLHSDVPSRFSGSGSGTDFTLTISSLQPEDFATYYCQGYSKDLLTFGGGTKLEIK
Regarding B1, the signal inhibition in % in assay [1] and in assay [2] was 8.66% in each case.
